Laboratory results reported in PMC8092592.

Legend:
[1] = biological target: preformed Nb30_(2)-TET12SN complex (llama); assay: ITC; nanobody titrated into the CC peptide dimer, the origami protein or a preformed nanobody-target complex; conditions in SI Appendix
[2] = biological target: protein origami tetrahedron TET12SN; assay: as above
[3] = biological target: preformed Nb30_2-TET12SN complex (llama); assay: ITC; titrations at 18, 25 and 32 °C fitted globally (independent binding sites, temperature-independent heat capacity); parameters reported at 25 °C; 20 mM sodium phosphate pH 7.0, 150 mM NaCl
[4] = substrate: CC protein origami tetrahedron TET12SN; assay: as above
[5] = biological target: preformed Nb30_2-TET12SN complex (llama); assay: ITC; nanobody in the syringe titrated into the cell with TET12SN or a tetrahedron variant (2-5 µM), CC peptide dimer (5-10 µM) or a complex preformed by a first titration; MicroCal VP-ITC, 25 °C; 20 mM sodium phosphate pH 7.0, 150 mM NaCl; independent binding sites model (SEDPHAT), errors by Monte-Carlo
[6] = substrate: CC protein origami tetrahedron TET12SN; assay: as above
[7] = substrate: CC protein origami tetrahedron variant TET12SN(22CC); assay: as above; conditions: for stoichiometry N: scale: nanobody per TET12SN(22CC)
[8] = biological target: preformed Nb28_(2)-TET12SN complex (llama); assay: ITC; nanobody titrated into the CC peptide dimer, the origami protein or a preformed nanobody-target complex; conditions in SI Appendix
[9] = biological target: preformed Nb28_2-TET12SN complex (llama); assay: ITC; nanobody in the syringe titrated into the cell with TET12SN or a tetrahedron variant (2-5 µM), CC peptide dimer (5-10 µM) or a complex preformed by a first titration; MicroCal VP-ITC, 25 °C; 20 mM sodium phosphate pH 7.0, 150 mM NaCl; independent binding sites model (SEDPHAT), errors by Monte-Carlo
[10] = biological target: preformed Nb28_2-TET12SN(22CC) complex (llama); assay: as above

| Kd [2] [nM] | Kd [4] [nM] | stoichiometry N (nanobody per TET12SN (cell:syringe)) [4] | stoichiometry N (nanobody per TET12SN (cell:syringe)) [6] | Kd [7] [nM] | stoichiometry N [7] | Binder | other results |
| --- | --- | --- | --- | --- | --- | --- | --- |
| 39 | 19 | 2 | 2 | 27 | 2 | nanobody Nb28 (VHH) VHH: QVQLQESGGGLVQPGGSLRLSCAAPGFRLDNYVIGWFRQAPGKEREGVSCISSSAGSTYYADSVKGRFTISRDNAKNTVYLQMNSLKPEDTAVYYCATACYSSYVTYWGQGTQVTVSS | Kd [1]: 2 nM; Kd [3]: 1.6 nM; stoichiometry N (nanobody per complex (cell:syringe)) [3]: 2; Kd [5]: 2.3 nM; stoichiometry N (nanobody per complex (cell:syringe)) [5]: 2 |
| – | – | – | 2 | – | – | nanobody Nb39 (VHH) VHH: QVQLQESGGGLVQAGGSLRLSCAASGSIFSINVMGWYRQAPGKQRELLASITSRGSTNYADSVKDRFTISRDNAKNTVYLQINSLKPEDTAVYYCNSRGWTTTRGDYDYWGQGTQVTVSS | KD, high-affinity site [2]: 27 nM; KD, second binding site [2]: 2000 nM |
| 1.8 | – | – | 2 | – | – | nanobody Nb26 (VHH) VHH: QVQLQESGGGLVQAGDSLRLSCAASGRTFSTYPMGWFRQAPGKEREFVAASSSRAYYADSVKGRFTISRNNAKNTVYLQMNSLKPEDTAVYYCVADSSPYYRRYDAAQDYDYWGQGTQVTVSS | – |
| 160 | – | – | 2 | – | – | nanobody Nb49 (VHH) VHH: QVQLQESGGGLVQPGGSLRLSCIASGRTFNPYGMGWFRQVPGKERTFVSGITWIGGTTYYVNSVKGRFTISRDRAKNTVYLQMNSLKPEDTAVYYCAADKDNTGYNYWGQGTQVTVSS | – |
| 350 | 160 | 2 | 2 | 270 | 2 | nanobody Nb30 (VHH) VHH: QVQLQESGGGLVQPGGSLRLSCAASGSIFSDNDMGWYRQPPGKQREWVATITYDHVTWYADSVKGRFAISRDNAKNTVYLQMNDLKPEDTAVYYCNAVPGRRGSWGQGTQVTVSS | Kd [8]: 26 nM; stoichiometry N (nanobody per complex (cell:syringe)) [9]: 2; Kd [10]: 24 nM; stoichiometry N (nanobody per complex (cell:syringe)) [10]: 2 |
| 21000 | – | – | 1 | – | – | nanobody Nb34 (VHH) VHH: QVQLQESGGGLVQPGGSLRLSCAASQFTFSSDWMYWVRQAPGKGLEWVSSISPGGAATAYAASVKGRFTISRDNAKNTLYLQMNSLKSEDTAVYYCSKTRAGTGRGQGTQVTVSS | – |
